Patent US20040009892A1, “Method for the identification and use of substances that modulate POD function and/or structure” (The Salk Institute for Biological Studies, priority 1997, published 2004)

Test system: Hep-2 cells
Experiment: Immunofluorescence localization of PML and DipA in Hep-2 cells
Assay type: cell-based
Conditions: 5 μg of gamma interferon for 18 hrs before fixation
Description: Hep-2 cells were grown in round coverslips and maintained in DMEM supplemented with 10% fetal calf serum in a humidified atmosphere containing 5% CO2. Cells were treated with 5 μg of gamma interferon (Biosource) or mocked treated for 18 hrs before fixation. Cells were fixed by one of two methods. In a first method, the cells were fixed at room temperature for 5 min with freshly prepared 1% paraformaldehyde in PBS, washed with PBS, and permeabilized for 20 min on ice with 0.2% Triton X-100 in PBS (v/v) (Sigma Chemical Co.). Antigen localization (PML and DipA) was determined after incubation of permeabilized cells with rabbit antiserum (DipA Ab) and a specific PML mab diluted in PBS for 1 hr at RT. Cells were double labeled with the respective second antibodies labeled either with FITC or Texas red, using FITC for the structures with the lowest staining intensity.
Alternatively, cells were fixed at −20° C. for 5 min with fresh and cold acetone followed by fresh and cold absolute methanol.
The cells were incubated with the first Ab diluted in PBS-10% calf serum for two hrs at RT in a humidified chamber. Coverslips were washed for 10 min in PBS 0.05% Tween 20. […]
Fluorescence images were analyzed using either the Leica confocal scanning microscope or a Nikon Microphot-SA immunofluorescence microscope. […]

B1: interferon gamma: gamma interferon (Biosource) used to treat Hep-2 cells (protein, UniProt P01579 24-161, looked up)
Interferon gamma: QDPYVKEAENLKKYFNAGHSDVADNGTLFLGILKNWKEESDRKIMQSQIVSFYFKLFKNFKDDQSIQKSVETIKEDMNVKFFNSNKKKRDDFEKLTNYSVTDLNVQRKAIHELIQVMAELSPAAKTGKRKRSQMLFRG
co-localization of PML and DipA in the POD structures: increased co-localization of PML and DipA in the POD structures
